Where no end group is shown, it is not given here. [ ]: non-standard residue; d: D form. Phe(4-NO2) = N[C@@H](Cc1ccc([N+](=O)[O-])cc1)C(=O)O; Nle = CCCC[C@H](N)C(=O)O; Aib = CC(C)(N)C(=O)O
T1: human GIP receptor (human, UniProt P48546 22-466)
T1 sequence (looked up): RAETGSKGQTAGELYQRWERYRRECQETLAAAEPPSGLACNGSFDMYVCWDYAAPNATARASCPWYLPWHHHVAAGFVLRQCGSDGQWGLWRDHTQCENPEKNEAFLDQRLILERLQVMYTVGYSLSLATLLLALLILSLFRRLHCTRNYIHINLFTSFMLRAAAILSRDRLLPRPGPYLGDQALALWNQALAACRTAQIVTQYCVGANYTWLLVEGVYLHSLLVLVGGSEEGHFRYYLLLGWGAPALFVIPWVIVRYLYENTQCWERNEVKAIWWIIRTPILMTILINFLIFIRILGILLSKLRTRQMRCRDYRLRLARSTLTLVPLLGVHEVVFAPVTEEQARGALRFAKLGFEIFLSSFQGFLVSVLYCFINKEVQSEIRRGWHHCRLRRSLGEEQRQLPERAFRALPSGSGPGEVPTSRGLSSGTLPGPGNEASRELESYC


What was measured:
Assay in all cases: cell-based or functional assay
[1] = biological target: T2, human GLP-1 receptor (human, UniProt P43220 24-463)
[2] = biological target: T1, human GIP receptor
[3] = biological target: T2, human GLP-1 receptor; remark: listed apart in the source
[4] = biological target: T1, human GIP receptor; remark: listed apart in the source

T2 sequence (P43220 24-463): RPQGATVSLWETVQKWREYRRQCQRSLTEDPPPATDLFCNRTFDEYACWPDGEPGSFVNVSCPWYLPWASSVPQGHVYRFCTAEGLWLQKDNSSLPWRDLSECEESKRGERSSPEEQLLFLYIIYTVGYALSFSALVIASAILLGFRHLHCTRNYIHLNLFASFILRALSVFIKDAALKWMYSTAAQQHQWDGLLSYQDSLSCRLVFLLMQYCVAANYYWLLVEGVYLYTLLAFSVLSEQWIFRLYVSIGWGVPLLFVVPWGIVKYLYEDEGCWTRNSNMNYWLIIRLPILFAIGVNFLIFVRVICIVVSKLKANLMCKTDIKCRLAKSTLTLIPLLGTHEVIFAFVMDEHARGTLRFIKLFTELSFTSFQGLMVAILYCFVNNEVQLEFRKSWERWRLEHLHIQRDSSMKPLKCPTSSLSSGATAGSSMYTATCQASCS

Row | Binder | EC50, GLP-1 Receptor cAMP induction [1] [nM] | EC50, GIP Receptor cAMP induction [2] [nM] | EC50, GLP-1R cAMP induction [3] [nM] | EC50, GIPR cAMP induction [4] [nM] | Relative Potency, GLP-1 Receptor [1] [%] | Relative Potency, GIP Receptor [2] [%]
1 | Y[Aib]EGTFTSDYSI[Phe(4-NO2)]MEKIHQQDFVNWLLAQ-NH2 [Analog 016] | 1670 | 18.3 |  |  |  | 
2 | Y[Aib]EGTFTSDYSIYMEKEAVREFIAWLVKG-NH2 (N-terminus assumed; SMILES CC[C@H](C)[C@H](NC(=O)[C@H](Cc1ccccc1)NC(=O)[C@H](CCC(=O)O)NC(=O)[C@H](CCCNC(=N)N)NC(=O)[C@@H](NC(=O)[C@H](C)NC(=O)[C@H](CCC(=O)O)NC(=O)[C@H](CCCCN)NC(=O)[C@H](CCC(=O)O)NC(=O)[C@H](CCSC)NC(=O)[C@H](Cc1ccc(O)cc1)NC(=O)[C@@H](NC(=O)[C@H](CO)NC(=O)[C@H](Cc1ccc(O)cc1)NC(=O)[C@H](CC(=O)O)NC(=O)[C@H](CO)NC(=O)[C@@H](NC(=O)[C@H](Cc1ccccc1)NC(=O)[C@@H](NC(=O)CNC(=O)[C@H](CCC(=O)O)NC(=O)C(C)(C)NC(=O)[C@@H](N)Cc1ccc(O)cc1)[C@@H](C)O)[C@@H](C)O)[C@@H](C)CC)C(C)C)C(=O)N[C@@H](C)C(=O)N[C@@H](Cc1c[nH]c2ccccc12)C(=O)N[C@@H](CC(C)C)C(=O)N[C@H](C(=O)N[C@@H](CCCCN)C(=O)NCC(N)=O)C(C)C) [Analog 023] | 1.28 | 0.088 | 1.28 | 0.088 | 75 | 107
3 | Y[Aib]EGTFTSDYSIY[Nle]EKIHQQDFVNWLVRQ-NH2 [Analog 021] | 217 | 2.3 |  |  |  | 21.7
4 | Y[Aib]EGTFTSDYSIY[Nle]EKEAQQDFVNWLLAQ-NH2 [Analog 020] | 830 | 0.27 |  |  |  | 51.8
5 | Y[Aib]EGTFTSDYSIYMEKQAAKEFIAWLVKG-NH2 (N-terminus assumed; SMILES CC[C@H](C)[C@H](NC(=O)[C@H](Cc1ccccc1)NC(=O)[C@H](CCC(=O)O)NC(=O)[C@H](CCCCN)NC(=O)[C@H](C)NC(=O)[C@H](C)NC(=O)[C@H](CCC(N)=O)NC(=O)[C@H](CCCCN)NC(=O)[C@H](CCC(=O)O)NC(=O)[C@H](CCSC)NC(=O)[C@H](Cc1ccc(O)cc1)NC(=O)[C@@H](NC(=O)[C@H](CO)NC(=O)[C@H](Cc1ccc(O)cc1)NC(=O)[C@H](CC(=O)O)NC(=O)[C@H](CO)NC(=O)[C@@H](NC(=O)[C@H](Cc1ccccc1)NC(=O)[C@@H](NC(=O)CNC(=O)[C@H](CCC(=O)O)NC(=O)C(C)(C)NC(=O)[C@@H](N)Cc1ccc(O)cc1)[C@@H](C)O)[C@@H](C)O)[C@@H](C)CC)C(=O)N[C@@H](C)C(=O)N[C@@H](Cc1c[nH]c2ccccc12)C(=O)N[C@@H](CC(C)C)C(=O)N[C@H](C(=O)N[C@@H](CCCCN)C(=O)NCC(N)=O)C(C)C) [Analog 025] | 0.837 | 1.5 | 0.837 | 1.5 | 131 | 33.3

From patent US20140162945A1 (BEIJING HANMI PHARMACEUTICAL, published 2014)
